Laboratory results reported in the supplement of paper PMC9170038.

Test system: MS2 coat protein
Assay: apparent KD of MS2 coat protein; higher = weaker reporter binding
Conditions: Eterna round: R107
In short: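 Designed RNA switches were transcribed on-chip from Illumina sequencing clusters and titrated with SNAP-549-labelled MS2 coat protein in twofold steps from 0.7 or 1.5 nM up to 3 µM. Each step lasted 0.8–1.5 h at first and 10–20 min by the end, in 100 mM Tris-HCl pH 7.5, 80 mM KCl and 4 mM MgCl2, without or with constant ligand. Apparent KD is the median, for each design, of fits to normalised cluster binding curves.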

[1] = input ligand: theophylline 20 uM
[2] = input ligand: theophylline 2 mM
[3] = input ligand: tryptophan 2.4 mM

Sequence: AGAGUUAGACAAAAGUCUAGCUCACCAGAAGGAGCGUCCGAAAGGACAGGUAGGUCGCUGGUACAUGAGCAUCAGCCAUGUUCCU [ArgAS 15 #OpenEnded #AlternativeMS2]
- apparent KD of MS2 coat protein (input ligand: arginine 13.2 mM): 18.1 nM
- apparent KD of MS2 coat protein (input ligand: none): 23.7 nM
- apparent KD of MS2 coat protein [1]: 28 nM
- apparent KD of MS2 coat protein [2]: 28.5 nM
- apparent KD of MS2 coat protein [3]: 24.1 nM

Sequence: GUAUUCAUGACGGCCGCCACUGCAAGCCUCCUCAUGGCAGAUUGACAUGAGGAUCACCCAUGUCUCAGGACCGGGUCUGGCAUCC [theeternabot_sameState_MS2_Trp_B_43]
- apparent KD of MS2 coat protein (input ligand: arginine 13.2 mM): 65.8 nM
- apparent KD of MS2 coat protein [1]: 244 nM
- apparent KD of MS2 coat protein [2]: 346 nM

Sequence: ACGAAACAAGCGGCCGCCACUUCGUGGUGCUAAGGCUUGAUACUACAUGAGGAUCACCCAUGUCGAAGGACCGGGCUUGCGACUG [theeternabot_sameState_MS2_Trp_B_33]
- apparent KD of MS2 coat protein (input ligand: arginine 13.2 mM): 43.4 nM
- apparent KD of MS2 coat protein [1]: 80 nM
- apparent KD of MS2 coat protein [2]: 60 nM

Sequence: ACACAAUACAUGAGGAUCACCCAUGUAUAACGAGGACCGGUACGGCCGCCACUCGAAUACUGUAAUCCUCGGAAUAUUAUGUGAA [JR_ExcTryptA_Sub003]
- apparent KD of MS2 coat protein (input ligand: arginine 13.2 mM): 32.9 nM
- apparent KD of MS2 coat protein [1]: 56.7 nM
- apparent KD of MS2 coat protein [2]: 60.5 nM

Sequence: CCAUCUUCAUCGGCCGCCACUGAACCAAGGAGACAUGAGGAUCACCCAUGUAUGGGAAACCAUCAUAGGACCGGGAUGAAGGUGG [doubleHookLine]
- apparent KD of MS2 coat protein (input ligand: arginine 13.2 mM): 36 nM
- apparent KD of MS2 coat protein [1]: 56.1 nM
- apparent KD of MS2 coat protein [2]: 48.1 nM

Sequence: GCUGUAAGUGCAGAUACCAGCAUGUUAUAUUUCUAAUGACAUGAGGAUCACCCAUGUAAAUGCCCUUGGCAGCUGCACUUACAGC [SSTHB #6]
- apparent KD of MS2 coat protein (input ligand: arginine 13.2 mM): 15.6 nM
- apparent KD of MS2 coat protein [1]: 21.4 nM
- apparent KD of MS2 coat protein [3]: 18.7 nM

Sequence: AAAAUAUAGACGGCCGCCACUAUAAACAUGAGGAACAUGAGGAUCACCCAUGUAUGAGGAUCACCUAGGACCGGGUCAUAUAAAA [AstrosExyTryB#1]
- apparent KD of MS2 coat protein (input ligand: arginine 13.2 mM): 28.6 nM
- apparent KD of MS2 coat protein (input ligand: none): 43 nM
- apparent KD of MS2 coat protein [1]: 55.4 nM
- apparent KD of MS2 coat protein [2]: 41.7 nM
- apparent KD of MS2 coat protein [3]: 40.2 nM

Sequence: AUUCAUAACUGAAGGAGCGUGAUAUAAAUUUUUACAUGAGGAUCACCCAUGUUUCAUCGAUCACAGGUAGGUCGCAGAUUCUCAU [JR_SSArginiB_Sub012]
- apparent KD of MS2 coat protein (input ligand: arginine 13.2 mM): 31.1 nM
- apparent KD of MS2 coat protein (input ligand: none): 55.3 nM
- apparent KD of MS2 coat protein [1]: 59.1 nM
- apparent KD of MS2 coat protein [2]: 45.1 nM
- apparent KD of MS2 coat protein [3]: 37.9 nM

Sequence: GGGCCCGGGCCGCGCGCGGCCCGGGCCCAACGAGGACCGGUACGGCCGCCACUCGAACGAGUGGGUACAUGAGGAUCACCCAUGU [Aaa]
- apparent KD of MS2 coat protein (input ligand: arginine 13.2 mM): 25.7 nM
- apparent KD of MS2 coat protein (input ligand: none): 27 nM
- apparent KD of MS2 coat protein [1]: 41.8 nM
- apparent KD of MS2 coat protein [2]: 45 nM
- apparent KD of MS2 coat protein [3]: 33.3 nM

Sequence: AUCGUACCUGGUGAUACCAGCAAUUGCUCGUGACAUGAGGAUCACCCAUGUGGCCAGUGAUGCCCUUGGCAGCAUGGUCGGUGCA [Same State - Theophylline B (Freestyle 24)]
- apparent KD of MS2 coat protein (input ligand: arginine 13.2 mM): 72.4 nM
- apparent KD of MS2 coat protein [1]: 167 nM
- apparent KD of MS2 coat protein [3]: 122 nM

Sequence: UGGGCUGGGUGCGUAAAGGGCCUGGCGCAUCGAGGACCGGUACGGCCGCCACUCGGCUGUACAUGAGGAUCACCCAUGUCAGGGU [#1 Same State - Tryptophan A Attempt #18 (HarryS)]
- apparent KD of MS2 coat protein (input ligand: arginine 13.2 mM): 45.9 nM
- apparent KD of MS2 coat protein (input ligand: none): 192 nM
- apparent KD of MS2 coat protein [1]: 552 nM
- apparent KD of MS2 coat protein [2]: 506 nM
- apparent KD of MS2 coat protein [3]: 364 nM

Sequence: AACAUGAGGAUUGAUACCAGUCCAUGAGGAUCACAUGAGGAUCACCCAUGUGGAACAUGAGGCCCUUGGCAGCAGUACAACAUGA [Same State Theophylline B]
- apparent KD of MS2 coat protein (input ligand: arginine 13.2 mM): 13.8 nM
- apparent KD of MS2 coat protein [1]: 17.2 nM
- apparent KD of MS2 coat protein [3]: 17.3 nM

Sequence: AUAACAUGAGGAUCACCCAUGUAAGCUGAAGGAGCGGACGAAAGUCCAGGUAGGUCGCAGCGCUCCUUCUGGUGAUCUGAAGGAG [(M1)-(M2)-(Arg1)-(Arg2)-(A)'-(M)'-(A)''_Design3]
- apparent KD of MS2 coat protein (input ligand: arginine 13.2 mM): 103 nM
- apparent KD of MS2 coat protein (input ligand: none): 151 nM
- apparent KD of MS2 coat protein [1]: 154 nM
- apparent KD of MS2 coat protein [2]: 87.8 nM
- apparent KD of MS2 coat protein [3]: 138 nM

Sequence: GCACCAGGUACGGAUACCAGCUGCCAGCGUUACAUGAGGAUCACCCAUGUGAUCUGAAGUAGCCCUUGGCAGCUGUACCUGGUGC [SSThB NP+V+V2 #4 +-Same Structure]
- apparent KD of MS2 coat protein (input ligand: arginine 13.2 mM): 96.7 nM
- apparent KD of MS2 coat protein [1]: 207 nM
- apparent KD of MS2 coat protein [3]: 62 nM

Sequence: GAAUUAUGACGUGAUACCAGUGGUCAAUACUGGGAACUUAACAUGAGGAUCACCCAUGUCCACCCUUGGCAGCACGCUGACAAUC [theeternabot_exclusion_MS2_Theo_B_14]
- apparent KD of MS2 coat protein (input ligand: arginine 13.2 mM): 43.5 nM
- apparent KD of MS2 coat protein [1]: 133 nM
- apparent KD of MS2 coat protein [3]: 79.6 nM
